# Measured values published in patent publication US7495116B2, “Phospholipid derivative” (NOF Corporation, priority 2002, dated 2009).
# Test: Determination of salt tolerant effect (clouding point, evaluation as surfactant)
# Format: physicochemical
# Details: 1 weight % solution in 5 weight % aqueous sodium sulfate
# Method: As a result of the measurement, the clouding point was not detectable even when the temperature was raised up to 80° C.
substance,measurement,value
monomethylpolyoxyethylenecarbamyl (Molecular Weight: 2000) distearoylphosphatidylethanolamine [Comparative Synthesis Example 1],Clouding point,50.0 °C
